Experiment in all cases: EMSA
Common to all, as to conditions: tags: MBP fusion

One series concerns the target T1, ZFP SBS#1070 (synthetic, UniProt P08047).
T1 chain: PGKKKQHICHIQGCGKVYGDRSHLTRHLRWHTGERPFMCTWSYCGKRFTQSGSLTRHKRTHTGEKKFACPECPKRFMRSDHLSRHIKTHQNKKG
In short, it runs like this:
(§1)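 Purified ZFP was titrated against labeled double-stranded target (1 nM or lower, at least 10-fold below expected Kd) carrying the natural binding site with flanks. Binding buffer was 10 mM Tris pH 7.5, 100 mM KCl, 1 mM MgCl2, 0.1 mM ZnCl2, 5 mM DTT, 10% glycerol, 0.02% BSA, with equilibration for at least 45 min. Bound and free target were separated on a 10% polyacrylamide gel.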

For a further series, the target named is T2, ZFP SBS#1071 (synthetic, UniProt P08047).
T2 chain: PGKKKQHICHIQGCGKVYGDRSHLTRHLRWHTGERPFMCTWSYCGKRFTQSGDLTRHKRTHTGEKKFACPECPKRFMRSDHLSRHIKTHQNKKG
The essentials: as §1

In another series the target is T3, ZFP SBS#1059 (synthetic).
T3 chain: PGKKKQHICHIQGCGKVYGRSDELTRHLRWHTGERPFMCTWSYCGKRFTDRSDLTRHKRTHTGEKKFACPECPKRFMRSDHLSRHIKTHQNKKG
The essentials: as §1

Another series deals with T4, ZFP SBS#1058 (synthetic).
T4 chain: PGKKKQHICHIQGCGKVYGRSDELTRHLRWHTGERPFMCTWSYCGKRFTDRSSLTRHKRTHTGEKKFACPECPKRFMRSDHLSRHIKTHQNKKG
The essentials:
as §1

The target of another series is T5, ZFP SBS#1065 (synthetic).
T5 chain: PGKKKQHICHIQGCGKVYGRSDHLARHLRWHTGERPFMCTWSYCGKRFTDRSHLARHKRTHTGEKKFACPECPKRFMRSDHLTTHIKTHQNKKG
In short, it runs like this: as §1

The next series concerns the target T6, ZFP SBS#1077 (synthetic).
T6 chain: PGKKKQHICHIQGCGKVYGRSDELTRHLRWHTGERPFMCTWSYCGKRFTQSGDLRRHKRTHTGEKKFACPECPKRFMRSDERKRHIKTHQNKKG
In short, it runs like this:
as §1

The target of another series is T7, ZFP SBS#1076 (synthetic).
T7 chain: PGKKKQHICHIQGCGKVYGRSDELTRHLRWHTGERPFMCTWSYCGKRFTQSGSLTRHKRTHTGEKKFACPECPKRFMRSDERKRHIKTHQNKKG
The essentials: as §1

A further series concerns the target T8, ZFP SBS#1069 (synthetic).
T8 chain: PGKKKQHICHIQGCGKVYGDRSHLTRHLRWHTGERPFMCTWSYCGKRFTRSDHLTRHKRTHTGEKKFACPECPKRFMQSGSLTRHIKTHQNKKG
The essentials: as §1

The target in the next series is ZFP SBS#1054 (synthetic). The essentials:
as §1

The next series concerns the target ZFP SBS#1056 (synthetic). The essentials: as §1
A further series has as its target ZFP SBS#1057 (synthetic). The essentials: as §1
The target in the next series is T9, ZFP SBS#1055 (synthetic).
T9 chain: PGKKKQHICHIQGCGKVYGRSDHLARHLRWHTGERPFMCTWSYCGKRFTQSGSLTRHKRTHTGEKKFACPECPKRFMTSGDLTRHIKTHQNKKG
In short, it runs like this:
as §1

Another series concerns the target ZFP SBS#979 (synthetic, UniProt P08047). In short, it runs like this:
as §1

The target of the next series is T10, ZFP SBS#1082 (synthetic).
T10 chain: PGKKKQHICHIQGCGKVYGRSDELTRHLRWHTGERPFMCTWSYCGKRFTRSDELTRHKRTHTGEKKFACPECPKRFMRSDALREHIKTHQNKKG
The essentials:
as §1

A further series has as its target T11, ZFP SBS#980 (synthetic, UniProt P08047).
T11 chain: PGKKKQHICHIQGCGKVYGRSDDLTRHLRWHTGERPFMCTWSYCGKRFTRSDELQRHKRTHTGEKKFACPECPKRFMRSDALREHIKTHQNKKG
The essentials: as §1

For the next series, the target named is T12, ZFP SBS#1068 (synthetic).
T12 chain: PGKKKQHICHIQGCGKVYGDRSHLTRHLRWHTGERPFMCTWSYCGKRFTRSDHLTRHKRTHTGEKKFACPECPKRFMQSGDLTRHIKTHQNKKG
The essentials:
as §1

The target of the next series is ZFP SBS#1073 (synthetic). In short, it runs like this:
as §1

Another series addresses ZFP SBS#1072 (synthetic). The essentials: as §1
The target of the next series is T13, ZFP SBS#463 (synthetic).
T13 chain: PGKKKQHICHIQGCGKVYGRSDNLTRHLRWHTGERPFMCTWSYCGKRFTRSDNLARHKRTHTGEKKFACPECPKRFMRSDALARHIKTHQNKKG
The essentials:
as §1

For a further series, the target named is T14, ZFP SBS#464 (synthetic).
T14 chain: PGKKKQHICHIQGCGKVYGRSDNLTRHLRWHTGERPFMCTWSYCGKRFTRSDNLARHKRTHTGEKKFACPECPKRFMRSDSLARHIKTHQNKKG
The essentials: as §1

In a further series the target is T15, ZFP SBS#1064 (synthetic).
T15 chain: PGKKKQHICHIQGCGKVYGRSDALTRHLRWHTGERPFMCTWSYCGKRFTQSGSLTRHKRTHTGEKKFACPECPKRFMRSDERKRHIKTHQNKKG
In short, it runs like this: as §1

A further series has as its target T16, ZFP SBS#1080 (synthetic).
T16 chain: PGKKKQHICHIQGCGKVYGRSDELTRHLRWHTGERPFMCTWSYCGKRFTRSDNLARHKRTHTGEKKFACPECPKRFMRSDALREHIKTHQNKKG
The essentials:
as §1

Another series has as its target T17, ZFP SBS#1067 (synthetic).
T17 chain: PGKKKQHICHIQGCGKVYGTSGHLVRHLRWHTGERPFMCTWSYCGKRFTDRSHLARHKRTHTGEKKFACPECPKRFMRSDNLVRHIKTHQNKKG
In short, it runs like this: as §1

The target of another series is T18, ZFP SBS#1066 (synthetic).
T18 chain: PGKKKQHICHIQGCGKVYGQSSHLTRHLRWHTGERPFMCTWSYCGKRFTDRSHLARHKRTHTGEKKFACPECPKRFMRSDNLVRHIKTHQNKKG
The essentials: as §1

A further series deals with T19, ZFP SBS#1081 (synthetic, UniProt P08047).
T19 chain: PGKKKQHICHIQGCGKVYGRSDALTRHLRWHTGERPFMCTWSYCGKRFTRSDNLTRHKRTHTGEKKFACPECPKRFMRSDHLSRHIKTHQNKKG
In short, it runs like this:
as §1

For another series, the target named is ZFP SBS#1078 (synthetic, UniProt P08047). The essentials: as §1
Sequence of ZFP SBS#1078 (P08047 other isoform, or with tags, fused parts or gaps): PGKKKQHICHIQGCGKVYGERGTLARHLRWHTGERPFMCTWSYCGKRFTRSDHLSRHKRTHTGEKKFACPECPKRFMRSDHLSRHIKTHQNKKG
The target in another series is ZFP SBS#1079 (synthetic, UniProt P08047). In short, it runs like this:
as §1

The target in another series is T20, ZFP SBS#1075 (synthetic).
T20 chain: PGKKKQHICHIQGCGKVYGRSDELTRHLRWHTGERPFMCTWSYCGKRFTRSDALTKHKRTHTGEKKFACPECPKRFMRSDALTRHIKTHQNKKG
In short, it runs like this: as §1

The next series deals with T21, ZFP SBS#1062 (synthetic).
T21 chain: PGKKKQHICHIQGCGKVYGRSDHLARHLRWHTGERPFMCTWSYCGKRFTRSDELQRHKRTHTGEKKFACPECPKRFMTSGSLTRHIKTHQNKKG
The essentials:
as §1

The target of the next series is ZFP SBS#1061 (synthetic). In short, it runs like this:
as §1

In a further series the target is T22, ZFP SBS#1063 (synthetic, UniProt P08047).
T22 chain: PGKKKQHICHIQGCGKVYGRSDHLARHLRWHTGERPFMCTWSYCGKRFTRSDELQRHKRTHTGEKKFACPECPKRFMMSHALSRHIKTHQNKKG
In short, it runs like this: as §1

For a further series, the target named is T23, ZFP SBS#1060 (synthetic).
T23 chain: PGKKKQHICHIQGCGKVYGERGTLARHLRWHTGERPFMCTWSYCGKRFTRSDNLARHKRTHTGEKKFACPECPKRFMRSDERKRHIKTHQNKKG
In short, it runs like this:
as §1

Sequence of ZFP SBS#1061 (synthetic) (chain, as listed by the source): as the sequence (P08047 other isoform, or with tags, fused parts or gaps) above, with E20R, R21S, G22D, T23H, H53E, S55Q, R78Q, D80S, H81A, S83T counted along it
Sequence of ZFP SBS#1057 (synthetic) (chain, as listed by the source): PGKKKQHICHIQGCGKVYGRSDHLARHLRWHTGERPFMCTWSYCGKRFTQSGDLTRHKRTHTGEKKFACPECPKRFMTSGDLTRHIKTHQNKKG
Sequence of ZFP SBS#1054 (synthetic) (chain, as listed by the source): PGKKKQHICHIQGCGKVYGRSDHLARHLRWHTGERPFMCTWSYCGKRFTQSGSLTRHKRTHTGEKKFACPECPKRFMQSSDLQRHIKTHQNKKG
Sequence of ZFP SBS#1073 (synthetic) (chain, as listed by the source): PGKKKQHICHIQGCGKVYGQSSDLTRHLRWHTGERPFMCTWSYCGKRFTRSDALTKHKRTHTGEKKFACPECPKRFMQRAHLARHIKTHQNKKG
Sequence of ZFP SBS#1072 (synthetic) (chain, as listed by the source): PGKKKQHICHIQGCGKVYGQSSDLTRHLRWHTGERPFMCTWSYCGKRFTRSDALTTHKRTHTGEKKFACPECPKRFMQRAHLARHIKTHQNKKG

B1: GGGGCAGGC (dsDNA)
DNA 1: GGGGCAGGC
DNA 2: GCCTGCCCC
As for B1, the Kd amounted to 0.456 nM in the series with ZFP SBS#1070 and 0.2 nM with ZFP SBS#1071.

B2: GGGGCCGCG (dsDNA)
DNA 1: GGGGCCGCG
DNA 2: CGCGGCCCC
With B2, the Kd in the series with ZFP SBS#1059 stood at 0.152 nM; in the series with ZFP SBS#1058, 6.28 nM.

B3: TGGGGCGGG (dsDNA)
DNA 1: TGGGGCGGG
DNA 2: CCCGCCCCA
On to B3, for which the Kd with ZFP SBS#1065 amounted to 1.37 nM.

B4: GCGGCAGCG (dsDNA)
DNA 1: GCGGCAGCG
DNA 2: CGCTGCCGC
Take B4: the results for the Kd with ZFP SBS#1077 and in the series with ZFP SBS#1076 were 6.2 nM and 4.1 nM, respectively.

B5: GCAGGCGGT (dsDNA)
DNA 1: GCAGGCGGT
DNA 2: ACCGCCTGC
The molecule B5 displayed a Kd with ZFP SBS#1069 of 0.1 nM.

B6: GCTGCAGGG (dsDNA)
DNA 1: GCTGCAGGG
DNA 2: CCCTGCAGC
On to B6, for which the Kd in the series with ZFP SBS#1054 is 0.033 nM; with ZFP SBS#1056, 0.045 nM; with ZFP SBS#1057, 0.483 nM; with ZFP SBS#1055 it was 18.7 nM.

B7: CTGGCGGCG (dsDNA)
DNA 1: CTGGCGGCG
DNA 2: CGCCGCCAG
As for B7, the Kd with ZFP SBS#979 came out at 1.59 nM; with ZFP SBS#1082, 0.152 nM; with ZFP SBS#980, 2.2 nM.

B8: GCAGGGGGC (dsDNA)
DNA 1: GCAGGGGGC
DNA 2: GCCCCCTGC
B8 showed a Kd with ZFP SBS#1068 of 2.05 nM.

B9: GGATTGGCT (dsDNA)
DNA 1: GGATTGGCT
DNA 2: AGCCAATCC
Take B9: the Kd in the series with ZFP SBS#1073 worked out at 1.37 nM; with ZFP SBS#1072, 0.46 nM.

B10: GTGGAGGAGA (dsDNA)
DNA 1: GTGGAGGAGA
DNA 2: TCTCCTCCAC
Regarding B10, the Kd was 0.5 nM with ZFP SBS#463 and 0.4 nM in the series with ZFP SBS#464.

B11: GCGGCAGTG (dsDNA)
DNA 1: GCGGCAGTG
DNA 2: CACTGCCGC
As to B11, in the series with ZFP SBS#1064, the dissociation constant Kd stood at 0.453 nM.

B12: CTGGAGGCG (dsDNA)
DNA 1: CTGGAGGCG
DNA 2: CGCCTCCAG
In the series with ZFP SBS#1080, B12 came in with a Kd of 1.37 nM.

B13: GAGGGCGGT (dsDNA)
DNA 1: GAGGGCGGT
DNA 2: ACCGCCCTC
Turning to B13, the Kd with ZFP SBS#1067 turned out to be 1.37 nM; with ZFP SBS#1066, 0.15 nM.

B14: GGGGAGGTG (dsDNA)
DNA 1: GGGGAGGTG
DNA 2: CACCTCCCC
Molecule B14 yielded a Kd with ZFP SBS#1081 of 0.05 nM.

B15: GGGGGGGCC (dsDNA)
DNA 1: GGGGGGGCC
DNA 2: GGCCCCCCC
Turning to B15, the Kd in the series with ZFP SBS#1078 came to 0.2 nM; with ZFP SBS#1079, 4.1 nM.

B16: GTGTTGGCG (dsDNA)
DNA 1: GTGTTGGCG
DNA 2: CGCCAACAC
In the series with ZFP SBS#1075, B16 registered a Kd of 0.915 nM.

B17: GTTGCGGGG (dsDNA)
DNA 1: GTTGCGGGG
DNA 2: CCCCGCAAC
B17: the Kd was determined as 0.068 nM in the series with ZFP SBS#1062, 0.165 nM in the series with ZFP SBS#1061 and 0.96 nM in the series with ZFP SBS#1063.

B18: GCGGAGGCC (dsDNA)
DNA 1: GCGGAGGCC
DNA 2: GGCCTCCGC
In the series with ZFP SBS#1060, B18 returned a Kd of 0.69 nM.

The values are drawn from US20030068675, “Position dependent recognition of GNN nucleotide triplets by zinc fingers” (published 2003).
